Measured values from paper PMC2259325, “Hepatitis C virus NS5A protein binds the SH3 domain of the Fyn tyrosine kinase with high affinity: mutagenic analysis of residues within the SH3 domain that contribute to the interaction” (Virology Journal, 2008).

Molecular target: T1, NS5A(Δ32), N-terminally truncated hepatitis C virus non-structural 5A protein (hepatitis C virus (genotype 1b, J4 …, UniProt O92972 2005-2419))
T1 construct: source: E. coli BL21 pLysS (DE3), purified (Ni-NTA, gel filtration on Superdex75)
T1 sequence: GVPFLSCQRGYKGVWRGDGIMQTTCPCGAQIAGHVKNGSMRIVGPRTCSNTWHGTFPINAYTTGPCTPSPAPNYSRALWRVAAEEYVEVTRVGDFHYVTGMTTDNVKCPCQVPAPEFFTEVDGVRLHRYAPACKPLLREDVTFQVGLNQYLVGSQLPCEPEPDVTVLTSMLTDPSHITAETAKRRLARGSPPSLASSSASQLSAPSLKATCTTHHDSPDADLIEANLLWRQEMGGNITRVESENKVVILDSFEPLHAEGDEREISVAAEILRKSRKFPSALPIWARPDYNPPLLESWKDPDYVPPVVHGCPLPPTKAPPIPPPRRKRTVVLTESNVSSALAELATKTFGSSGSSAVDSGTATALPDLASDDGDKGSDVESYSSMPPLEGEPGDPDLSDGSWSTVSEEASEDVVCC
Assay: SPR; Biacore 3000, HBS buffer (10 mM Hepes-NaOH pH 7.4, 150 mM NaCl, 0.005% Tween-20), 25°C; GST-SH3 captured on CM5 chip via amine-coupled anti-GST antibody; NS5A 3 μM - 100 nM flowed over, in triplicate; 1:1 Langmuir fit
Settings: both partners purified

B1: GST-Fyn SH3 domain fusion protein (wild type) (domain or fragment)
chain: not shown
notes: source: expressed and purified as previously described [6]
- koff: 0.00308 s⁻¹
- kon: 4930 M⁻¹ s⁻¹
